Laboratory results as given in patent publication US7488592 (WASHINGTON UNIVERSITY, dated 2009).

What was measured:
[1] = target: T1, FLAG-Erf2(C189S)p (yeast (S. cerevisiae), UniProt Q06551 1-359); test: co-purification on GSH-agarose from yeast extracts, immunoblot (FIG. 6B)
T1 construct: Loss-of-function mutant in the DHHC domain, expressed in yeast
T1 sequence: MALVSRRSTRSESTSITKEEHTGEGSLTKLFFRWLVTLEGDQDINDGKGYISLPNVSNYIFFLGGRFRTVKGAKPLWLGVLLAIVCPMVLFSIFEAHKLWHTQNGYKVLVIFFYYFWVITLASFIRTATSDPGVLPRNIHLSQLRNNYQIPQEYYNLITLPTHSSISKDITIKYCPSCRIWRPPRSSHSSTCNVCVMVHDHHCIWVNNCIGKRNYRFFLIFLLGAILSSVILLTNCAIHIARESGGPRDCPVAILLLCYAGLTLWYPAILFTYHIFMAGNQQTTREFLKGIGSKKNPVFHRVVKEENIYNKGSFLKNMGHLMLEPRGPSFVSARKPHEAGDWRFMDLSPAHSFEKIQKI
Procedure: (§1) Expression of FLAG-Erf2p was determined by affinity purification on anti-FLAG antibody linked to agarose beads followed by an anti-FLAG immunoblot (bottom panel). (FIG. 6C) The Ras PAT activity of partially purified extracts of ERF2 and ERF4 wild type and mutant strains was assayed as described in Example 1.
(§2) Purification of Erf2p/Erf4p Complex—RJY543 yeast cells expressing GST-Erf4p along with FLAG-Erf2p or FLAG-Erf2p mutants (Erf2(H201A)_p, Erf2(C189S)p, Erf2(C203S) p) were solubilized in Y-PER® reagent as described above. *E. coli* cells expressing GST-Erf4p along with FLAG-Erf2p or FLAG-Erf2p mutants (Erf2(H201A)p, Erf2(C203S)p) were lysed by high pressure (25,000 p.s.i.) homogenization (Avestin) in 50 mM Tris-HCl, pH 7.4, 150 mM NaCl, 1 mM DTT, 1 mM EDTA, and 0.13 mM phenylmethylsulfonyl fluoride (Buffer A). […]
(§3) Immunoblotting—Proteins bound to the GSH-agarose beads were analyzed for the presence of both GST and FLAG peptide fusion proteins. GST fusion proteins were detected by immunoblotting with rabbit anti-GST (Molecular Probes) antibody and peroxidase-conjugated goat anti-rabbit secondary antibody (Sigma). FLAG-tagged proteins were detected on Western blots by probing with anti-FLAG® M5 monoclonal antibody (Sigma) and peroxidase-conjugated sheep anti-mouse secondary antibody (Amersham Biosciences).

[2] = target: T2, FLAG-Erf2p (yeast (S. cerevisiae), UniProt Q06551 1-359); test: co-purification on GSH-agarose from yeast extracts, anti-FLAG immunoblot
T2 construct: Expressed in yeast RJY543 (pESC) or in E. coli XL1 Blue (pFLAG-MAC operon fusion); also called FLAG-tagged Erf2p; yeast Erf2
T2 sequence: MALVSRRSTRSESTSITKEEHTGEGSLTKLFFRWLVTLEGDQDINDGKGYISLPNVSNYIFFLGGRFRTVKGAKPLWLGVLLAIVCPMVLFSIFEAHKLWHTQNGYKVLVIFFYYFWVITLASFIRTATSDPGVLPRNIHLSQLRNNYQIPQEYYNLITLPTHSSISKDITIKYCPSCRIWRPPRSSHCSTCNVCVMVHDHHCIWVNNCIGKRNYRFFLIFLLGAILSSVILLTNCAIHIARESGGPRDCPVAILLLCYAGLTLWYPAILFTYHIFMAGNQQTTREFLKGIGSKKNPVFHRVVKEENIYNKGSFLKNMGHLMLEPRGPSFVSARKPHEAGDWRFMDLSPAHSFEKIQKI
Procedure: as §1, §2, §3

binding result [1]: no binding
binding result [2]: binds
B1: GST-Erf4p (other)
chain: MCDSHQKEEDNANTSERALFFNYHEFSYSFYEDLGSEDAKPTEHDEDHKLCITHFPNVYAARGSAEFQVTRVVRVPRRFDESRSSLETPQFSTQLPGSEPAAIVGDDGTSFVRCGRYDIGDHVFGCSSVSPLSEYLSAAELAEVVHRVNGFLLREEGEVFGWRNLSGLLLDMLTGGLWSWVLGPLLSRPVFQESLALEQYVAQLNSPGGLLHERGVRLVLPRRSGCLSLDFVVPRPK
notes: also called yeast Erf4; YOL110W; not shown: glutathione S-transferase (GST) moiety fused in frame to the N-terminus; vector pEG(KG) in yeast, pFLAG-MAC operon fusio
